Reference: article PMC12512739

Legend:
[1] = target: Annexin A2 (endogenous, PK-15 cells) (pig (endogenous in PK-15)) (UniProt P19620)
[2] = target: Annexin A2 (endogenous, PK-15 cells) (pig (endogenous in PK-15)) (UniProt P19620); remark: listed apart in the source
[3] = target: PCV2 virus-like particles (VLPs) assembled from the capsid protein (Cap) (porcine circovirus type 2 (genotype 2d, strain ChenZ-2-1))
[4] = target: Porcine circovirus type 2 (PCV2) virus particles (capsid of Cap) (porcine circovirus type 2 (genotype 2d, strain ChenZ-2-1))

UniProt P19620, sequence (P19620 whole entry): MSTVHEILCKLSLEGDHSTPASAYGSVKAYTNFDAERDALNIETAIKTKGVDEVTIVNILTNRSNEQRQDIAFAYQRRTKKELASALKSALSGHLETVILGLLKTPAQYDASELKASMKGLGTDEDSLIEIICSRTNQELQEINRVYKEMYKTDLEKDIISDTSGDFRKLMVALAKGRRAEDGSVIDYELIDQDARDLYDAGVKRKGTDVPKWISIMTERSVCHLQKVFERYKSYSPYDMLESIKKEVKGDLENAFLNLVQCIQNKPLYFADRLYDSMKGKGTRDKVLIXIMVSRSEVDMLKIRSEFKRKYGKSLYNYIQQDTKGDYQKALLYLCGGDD

Row | Substance | decrease in PCV2 infectivity by IFA (Cap fluorescence) in PK-15 cells pretreated with ANXA2-specific polyclonal antibody, against control cells [1] [%] | reduction of viral genome copies in PK-15 cells at 36 hpi (qPCR) after pretreatment of the cells with anti-ANXA2 polyclonal antibody at 10 and 30 μg/mL [1] [%] | reduction of PCV2 particles attached to PK-15 cells at 4 °C (qPCR) after pretreatment of the cells with ANXA2-specific antibody (30 μg/mL) [2] [%] | decrease of PCV2 VLP binding to PK-15 cells at 4 °C (immunofluorescence with anti-Cap antibody, fluorescence intensity) after preincubation of VLPs with rANXA2 (20 μg/mL) [3] [%] | inhibition of PCV2 attachment to PK-15 cells at 4 °C (bound virus by qPCR) after preincubation of PCV2 with rANXA2 (20 μg/mL); blocks PCV2 and cell surface ANXA2 [4] [%]
1 | Porcine circovirus type 2 (PCV2) virus particles (capsid of Cap) (complex) | 30 | 42.7 | 25.2 |  | 
2 | recombinant soluble full-length porcine ANXA2 with an N-terminal His-tag (pET-28a(+)) (from UniProt P19620 1-339) (natural protein) |  |  |  | 19.4 | 32.7
